Legend:
[1] = molecular target: T1, recombinant human FcRn (Sino Biological Inc. Cat. No. CT009-H08H) (human, UniProt P55899 24-290; P61769 21-119); test: scFv competition ELISA vs biotinylated parent murine antibody, captured FcRn, pH 7.4
T1 construct: Bought protein; also called hFcRn (SINO); immobilized FcRn
Procedure: (§1) A total of about 60 scFv antibodies from the VH CDR3 and VL CDR3 libraries were selected for further study. The scFv antibodies were prepared from bacterial periplasmic extracts, and tested by competition ELISA at pH 6.0 and pH 7.4. […] As in the ELISA used to test humanized variants, a 96 well flat bottom microtitre plate was pre-coated with 1 μg/ml of an FcRn antibody specific for an albumin-binding epitope distinct from the Fc-binding region. Binding was determined at pH 7.4 and pH 6.0.

[2] = molecular target: T1, recombinant human FcRn (Sino Biological …); test: scFv competition ELISA vs biotinylated parent murine antibody, captured FcRn, pH 6
Procedure: as §1

[3] = molecular target: T2, FcRn (analyte of the BIACORE studies of Tables 9-11, tables titled anti-human FcRn mAbs) (human, UniProt P55899 24-290; P61769 21-119); test: SPR, antibody captured on protein A, FcRn 50-0.02 nM, 1:1 model
T2 construct: also called analyte (FcRn)
Procedure: For kinetic analysis, a 2-fold dilution range was selected from 50-0.02 nM FcRn. The association phase of FcRn analyte was monitored for 450 seconds, and dissociation was measured for 1500 seconds, at 40 μl/min. Fc1 was a reference channel and was subtracted from other flow cells to correct for non-specific binding. Kinetic values are based on a 1:1 binding model (Table 11).

[4] = molecular target: T2, FcRn (analyte of the BIACORE studies of …); test: SPR (BIACORE), antibody immobilized on CM5, FcRn injected, 1:1 Langmuir, pH 6.0
Procedure: (§2) Antibodies were diluted into 10 mM NaAc, pH 4.5, and immobilized onto BIACORE® CM5 chips to RU levels of approximately 500-1000. Analysis was performed by injection of FcRn at concentrations of 12-800 nM in 1×PBS-P at pH 7.4 or pH 6.0.

[5] = molecular target: T2, FcRn (analyte of the BIACORE studies of …); test: SPR (BIACORE), antibody immobilized on CM5, FcRn injected, 1:1 Langmuir, pH 7.4
Procedure: as §2

T1 sequence (P55899 24-290 limits assumed, chain 1 of 2): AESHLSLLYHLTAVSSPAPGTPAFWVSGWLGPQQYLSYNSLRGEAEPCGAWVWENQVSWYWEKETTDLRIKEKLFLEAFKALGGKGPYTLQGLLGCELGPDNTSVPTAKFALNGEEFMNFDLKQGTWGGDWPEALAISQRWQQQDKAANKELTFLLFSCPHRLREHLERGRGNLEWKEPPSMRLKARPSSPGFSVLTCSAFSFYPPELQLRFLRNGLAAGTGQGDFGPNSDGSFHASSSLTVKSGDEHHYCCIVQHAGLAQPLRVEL
T1 sequence (P61769 21-119 limits assumed, chain 2 of 2): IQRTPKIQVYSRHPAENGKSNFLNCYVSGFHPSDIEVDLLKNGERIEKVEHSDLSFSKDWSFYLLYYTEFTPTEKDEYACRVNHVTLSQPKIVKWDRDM
T2 sequence (P55899 24-290 limits assumed, chain 1 of 2): as the sequence (P55899 24-290 limits assumed, chain 1 of 2) above
T2 sequence (P61769 21-119 limits assumed, chain 2 of 2): as the sequence (P61769 21-119 limits assumed, chain 2 of 2) above

B1: H1 VH1 scFv with humanized parental Vκ1 (scFv)
scFv: QVQLVQSGAELKKPGASVKLSCKASGYTFTSYGISWVKQATGQGLEWIGEIYPRSGNTYYNEKFKGRATLTADKSTSTAYMELRSLRSEDSAVYFCARSTTVSPPPLWGTGTTVTVSSGGGGSGGGGSGGGGSDIQMTQSPSYLSASVGDRVTITCKASDHINNWLAWYQQKPGQAPRLLISGATSLETGVPSRFSGSGTGKDYTLTISSLQTEDFATYYCQQYWSTPYTFGGGTKVEIK
notes: from bacterial periplasmic extracts
- fold decrease in IC50 (relative to humanized parent scFV) [1]: 36.4 fold
- fold decrease in IC50 (relative to humanized parent scFV) [2]: 17.1 fold

B2: G7 VH1 scFv with humanized parental Vκ1 (scFv)
scFv: QVQLVQSGAELKKPGASVKLSCKASGYTFTSYGISWVKQATGQGLEWIGEIYPRSGNTYYNEKFKGRATLTADKSTSTAYMELRSLRSEDSAVYFCARSTTVAPPGHWGTGTTVTVSSGGGGSGGGGSGGGGSDIQMTQSPSYLSASVGDRVTITCKASDHINNWLAWYQQKPGQAPRLLISGATSLETGVPSRFSGSGTGKDYTLTISSLQTEDFATYYCQQYWSTPYTFGGGTKVEIK
- fold decrease in IC50 (relative to humanized parent scFV) [1]: 30.8 fold
- fold decrease in IC50 (relative to humanized parent scFV) [2]: 17.7 fold

B3: C4 VH1 scFv with humanized parental Vκ1 (scFv)
scFv: QVQLVQSGAELKKPGASVKLSCKASGYTFTSYGISWVKQATGQGLEWIGEIYPRSGNTYYNEKFKGRATLTADKSTSTAYMELRSLRSEDSAVYFCARSTTVAPPRLWGTGTTVTVSSGGGGSGGGGSGGGGSDIQMTQSPSYLSASVGDRVTITCKASDHINNWLAWYQQKPGQAPRLLISGATSLETGVPSRFSGSGTGKDYTLTISSLQTEDFATYYCQQYWSTPYTFGGGTKVEIK
- fold decrease in IC50 (relative to humanized parent scFV) [1]: 24.4 fold
- fold decrease in IC50 (relative to humanized parent scFV) [2]: 18.6 fold

B4: H2 VH1 scFv with humanized parental Vκ1 (scFv)
scFv: QVQLVQSGAELKKPGASVKLSCKASGYTFTSYGISWVKQATGQGLEWIGEIYPRSGNTYYNEKFKGRATLTADKSTSTAYMELRSLRSEDSAVYFCARSTTVAPPAHWGTGTTVTVSSGGGGSGGGGSGGGGSDIQMTQSPSYLSASVGDRVTITCKASDHINNWLAWYQQKPGQAPRLLISGATSLETGVPSRFSGSGTGKDYTLTISSLQTEDFATYYCQQYWSTPYTFGGGTKVEIK
- fold decrease in IC50 (relative to humanized parent scFV) [1]: 23.8 fold
- fold decrease in IC50 (relative to humanized parent scFV) [2]: 14.2 fold

B5: A7 VH1 scFv with humanized parental Vκ1 (scFv)
scFv: QVQLVQSGAELKKPGASVKLSCKASGYTFTSYGISWVKQATGQGLEWIGEIYPRSGNTYYNEKFKGRATLTADKSTSTAYMELRSLRSEDSAVYFCARSTTVSPPPIWGTGTTVTVSSGGGGSGGGGSGGGGSDIQMTQSPSYLSASVGDRVTITCKASDHINNWLAWYQQKPGQAPRLLISGATSLETGVPSRFSGSGTGKDYTLTISSLQTEDFATYYCQQYWSTPYTFGGGTKVEIK
- fold decrease in IC50 (relative to humanized parent scFV) [1]: 20 fold
- fold decrease in IC50 (relative to humanized parent scFV) [2]: 17 fold

B6: E4 VH1 scFv with humanized parental Vκ1 (scFv)
scFv: QVQLVQSGAELKKPGASVKLSCKASGYTFTSYGISWVKQATGQGLEWIGEIYPRSGNTYYNEKFKGRATLTADKSTSTAYMELRSLRSEDSAVYFCARSTTVHPDHNWGTGTTVTVSSGGGGSGGGGSGGGGSDIQMTQSPSYLSASVGDRVTITCKASDHINNWLAWYQQKPGQAPRLLISGATSLETGVPSRFSGSGTGKDYTLTISSLQTEDFATYYCQQYWSTPYTFGGGTKVEIK
- fold decrease in IC50 (relative to humanized parent scFV) [1]: 16.8 fold
- fold decrease in IC50 (relative to humanized parent scFV) [2]: 3.65 fold

B7: G9 VH1 scFv with humanized parental Vκ1 (scFv)
scFv: QVQLVQSGAELKKPGASVKLSCKASGYTFTSYGISWVKQATGQGLEWIGEIYPRSGNTYYNEKFKGRATLTADKSTSTAYMELRSLRSEDSAVYFCARSTTVSPPRVWGTGTTVTVSSGGGGSGGGGSGGGGSDIQMTQSPSYLSASVGDRVTITCKASDHINNWLAWYQQKPGQAPRLLISGATSLETGVPSRFSGSGTGKDYTLTISSLQTEDFATYYCQQYWSTPYTFGGGTKVEIK
- fold decrease in IC50 (relative to humanized parent scFV) [1]: 25.3 fold
- fold decrease in IC50 (relative to humanized parent scFV) [2]: 21.7 fold

B8: E7 VH1 scFv with humanized parental Vκ1 (scFv)
scFv: QVQLVQSGAEPKKPGASVKLSCKASGYTFTSYGISWVKQATGQGLEWIGEIYPRSGNTYYNEKFKGRATLTADKSTSTAYMELRSLRSEDSAVYFCARSTTVSPPHLWGTGTTVTVSSGGGGSGGGGSGGGGSDIQMTQSPSYLSASVGDRVTITCKASDHINNWLAWYQQKPGQAPRLLISGATSLETGVPSRFSGSGTGKDYTLTISSLQTEDFATYYCQQYWSTPYTFGGGTKVEIK
- fold decrease in IC50 (relative to humanized parent scFV) [1]: 37.4 fold
- fold decrease in IC50 (relative to humanized parent scFV) [2]: 16.4 fold

B9: G4 VH1 scFv with humanized parental Vκ1 (scFv)
scFv: QVQLVQSGAELKKPGASVKLSCKASGYTFTSYGISWVKQATGQGLEWIGEIYPRSGNTYYNEKFKGRATLTADKSTSTAYMELRSLRSEDSAVYFCARSTTVSPPHLWGTGTTVTVSSGGGGSGGGGSGGGGSDIQMTQSPSYLSASVGDRVTITCKASDHINNWLAWYQQKPGQAPRLLISGATSLETGVPSRFSGSGTGKDYTLTISSLQTEDFATYYCQQYWSTPYTFGGGTKVEIK
- fold decrease in IC50 (relative to humanized parent scFV) [1]: 29 fold
- fold decrease in IC50 (relative to humanized parent scFV) [2]: 18.9 fold

B10: H4 VH1 scFv with humanized parental Vκ1 (scFv)
scFv: QVQLVQSGAELKKPGASVKLSCKASGYTFTSYGISWVKQATGQGLEWIGEIYPRSGNTYYNEKFKGRATLTADKSTSTAYMELRSLRSEDSAVYFCARSTTVSAPGVWGTGTTVTVSSGGGGSGGGGSGGGGSDIQMTQSPSYLSASVGDRVTITCKASDHINNWLAWYQQKPGQAPRLLISGATSLETGVPSRFSGSGTGKDYTLTISSLQTEDFATYYCQQYWSTPYTFGGGTKVEIK
- fold decrease in IC50 (relative to humanized parent scFV) [1]: 9.29 fold
- fold decrease in IC50 (relative to humanized parent scFV) [2]: 6.5 fold

B11: F7 VH1 scFv with humanized parental Vκ1 (scFv)
scFv: QVQLVQSGAELKKPGASVKLSCKASGYTFTSYGISWVKQATGQGLEWIGEIYPRSGNTYYNEKFKGRATLTADKSTSTAYMELRSLRSEDSAVYFCARSTTVAPPPLWGTGTTVTVSSGGGGSGGGGSGGGGSDIQMTQSPSYLSASVGDRVTITCKASDHINNWLAWYQQKPGQAPRLLISGATSLETGVPSRFSGSGTGKDYTLTISSLQTEDFATYYCQQYWSTPYTFGGGTKVEIK
- fold decrease in IC50 (relative to humanized parent scFV) [1]: 26.4 fold
- fold decrease in IC50 (relative to humanized parent scFV) [2]: 16.4 fold

B12: A4 VH1 scFv with humanized parental Vκ1 (scFv)
scFv: QVQLVQSGAELKKPGASVKLSCKASGYTFTSYGISWVKQATGQGLEWIGEIYPRSGNTYYNEKFKGRATLTADKSTSTAYMELRSLRSEDSAVYFCARSTTVSPADFRGTGTTVTVSSGGGGSGGGGSGGGGSDIQMTQSPSYLSASVGDRVTITCKASDHINNWLAWYQQKPGQAPRLLISGATSLETGVPSRFSGSGTGKDYTLTISSLQTEDFATYYCQQYWSTPYTFGGGTKVEIK
- fold decrease in IC50 (relative to humanized parent scFV) [1]: 7.18 fold
- fold decrease in IC50 (relative to humanized parent scFV) [2]: 5.04 fold

B13: H1VH1_Vκ2 antibody (antibody, IgG4, V domains shown)
VH: QVQLVQSGAELKKPGASVKLSCKASGYTFTSYGISWVKQATGQGLEWIGEIYPRSGNTYYNEKFKGRATLTADKSTSTAYMELRSLRSEDSAVYFCARSTTVSPPPLWGTGTTVTVSS
VL: DIQMTQSPSSLSASVGDRVTITCKASDHINNWLAWYQQKPGQAPRLLISGATSLETGVPSRFSGSGTGKDYTLTISSLQPEDFATYYCQQYWSTPYTFGGGTKVEIK
- Kd [3]: 0.32 nM
- koff [3]: 9.28e-05 s⁻¹
- kon [3]: 289000 M⁻¹ s⁻¹

B14: VH1_A8/Vκ2_E8 IgG4 (antibody, V domains shown)
VH: QVQLVQSGAELKKPGASVKLSCKASGYTFTSYGISWVKQATGQGLEWIGEIYPRSGNTYYNEKFKGRATLTADKSTSTAYMELRSLKSEDSAVYFCARSTTVSPPAHWGTGTTVTVSS
VL: DIQMTQSPSSLSASVGDRVTITCKASDHINNWLAWYQQKPGQAPRLLISGATSLETGVPSRFSGSGTGKDYTLTISSLQTEDFATYYCHQYYSTPYTFGGGTKVEIK
notes: bivalent IgG4, kappa; also called A8VH1E8Vκ2; A8/E8VK2
- Kd [4]: 1.4 nM
- koff [4]: 0.000438 s⁻¹
- kon [4]: 319000 M⁻¹ s⁻¹
- Kd [5]: 18.2 nM
- koff [5]: 0.000679 s⁻¹
- kon [5]: 43800 M⁻¹ s⁻¹

B15: VH1_G4/Vκ2_E8 IgG4 (antibody, V domains shown)
VH: QVQLVQSGAELKKPGASVKLSCKASGYTFTSYGISWVKQATGQGLEWIGEIYPRSGNTYYNEKFKGRATLTADKSTSTAYMELRSLRSEDSAVYFCARSTTVSPPHLWGTGTTVTVSS
VL: DIQMTQSPSSLSASVGDRVTITCKASDHINNWLAWYQQKPGQAPRLLISGATSLETGVPSRFSGSGTGKDYTLTISSLQTEDFATYYCHQYYSTPYTFGGGTKVEIK
notes: bivalent IgG4, kappa; also called G4VH1E8Vκ2
- Kd [4]: 1.3 nM
- koff [4]: 0.000298 s⁻¹
- kon [4]: 229000 M⁻¹ s⁻¹
- Kd [5]: 13.1 nM
- koff [5]: 0.000544 s⁻¹
- kon [5]: 54300 M⁻¹ s⁻¹
